# Data published in the RNAGym collection of RNA variant scans (doi:10.7554/elife.90254).
# B1: OR4K15 (parent)
# chain: GUUAACGGUCAUAGGCCAUGGAAACUAGGAGCACCAUUUCGCUGCCAGUGAAGAAAUGAACAAAGAAAAUCUGGGCCAGGCAGGCAUCAAAAGAAAUAGUCUUGCGCUCAACCAGAAAGUCUGUAAUCAUUUUAAGGGUA
# Variants of: B1
# Assay: self-cleavage, relative activity (ratio to wild type); higher = more cleavage; in vitro, sequencing; the parent is a self-cleaving ribozyme
row,Variant,self-cleavage
1,GUUAACGGUCAUAGGCCAUGGAAACUAGGAGCACCAUUUCGCUGCCAGUGAAGAAAUGAACAAAGUAAAUCUGGGCCAGGCAGGCAUCUAAAGAAAUAGUCUUGCGCUCAACCAGAAAGUCUGUAAUCAUUUUAAGGGUA,0.62
2,GUUAACGGUCAUAGGCCAUGGAAACUAGGAGCACCAUUUCGCUGCCAGUGAAGAAAUGAACAAAGUAAAUCUGGGCCAGGCAGGCAUCAAAAGAAAUAGUCUUGCGCUCGACCAGAAAGUCUGUAAUCAUUUUAAGGGUA,0.14
3,GUUAACGGUCAUAGGCCAUGGAAACUAGGAGCACCAUUUCGCUGCCAGUGAAGAAAUGAACAAAGGAAAUCUGGGCCAGGCAGGCAUCAAAAGAAAUAGUCUUGCGCUCAACCAGAAAGUCAGUAAUCAUUUUAAGGGUA,1.63
4,GUUAACGGUCAUAGGCCAUGGAAACUAGGAGCACCAUUUCGCUGCCAGUGAAGAAAUGAACAAAGGAAAUCUGGGCCAGGCAGGCAUCAAAAGAAAUAGUCUUGCGCUCAACCAGAAAGUCGGUAAUCAUUUUAAGGGUA,2.19
5,GUUAACGGUCAUAGGCCAUGGAAACUAGGAGCACCAUUUCGCUGCCAGUGAAGAAAUGAACAAAGGAAAUCUGGGCCAGGCAGGCAUCAAAAGAAAUAGUCUUGCGCUCAACCAGAAAGUCCGUAAUCAUUUUAAGGGUA,1.67
6,GUUAACGGUCAUAGGCCAUGGAAACUAGGAGCACCAUUUCGCUGCCAGUGAAGAAAUGAACAAAGUAAAUCUGGGCCUGGCAGGCAUCAAAAGAAAUAGUCUUGCGCUCAACCAGAAAGUCUGUAAUCAUUUUAAGGGUA,0.32
7,GUUAACGGUCAUAGGCCAUGGAAACUAGGAGCACCAUUUCGCUGCCAGUGAAGAAAUGAACAAAGGAAAUCUGGGCCAGGCAGGCAUCAAAAGAAAUAGUCUUGCGCUCAACCAGAAAGUCUGUAAUCAUUUUAAGGGAA,1.72
8,GUUAACGGUCAUAGGCCAUGGAAACUAGGAGCACCAUUUCGCUGCCAGUGAAGAAAUGAACAAAGUAAAUCUGGGCCAGGCAGGCAUCAAAAGAAGUAGUCUUGCGCUCAACCAGAAAGUCUGUAAUCAUUUUAAGGGUA,1.17
9,GUUAACGGUCAUAGGCCAUGGAAACUAGGAGCACCAUUUCGCUGCCAGUGAAGAAAUGAACAAAGUAAAUCUGGGCCAGGCAGGCAUCAAGAGAAAUAGUCUUGCGCUCAACCAGAAAGUCUGUAAUCAUUUUAAGGGUA,0.65
10,GUUAACGGUCAUAGGCCAUGGAAACUAGGAGCACCAUUUCGCUGCCAGUGAAGAAAUGAACAAAGGAAAUCUGGGCCAGGCAGGCAUCAAAAGAAAUAGUCUUGCGCUCAACCAGAAAGUCUGUAAUCACUUUAAGGGUA,1.68
11,GUUAACGGUCAUAGGCCAUGGAAACUAGGAGCACCAUUUCGCUGCCAGUGAAGAAAUGAACAAAGGAAAUCUGGGCCAGGCAGGCAUCAAAAGAAAUAGUCUUGCGCUCAACCAGAAAGUCUGUAAUCAGUUUAAGGGUA,0.2
12,GUUAACGGUCAUAGGCCAUGGAAACUAGGAGCACCAUUUCGCUGCCAGUGAAGAAAUGAACAAAGGAAAUCUGGGCCAGGCAGGCAUCAAAAGAAAUAGUCUUGCGCUCAACCAGAAAGUCUGUAAUCAUCUUAAGGGUA,1.04
13,GUUAACGGUCAUAGGCCAUGGAAACUAGGAGCACCAUUUCGCUGCCAGUGAAGAAAUGAACAAAGGAAAUCUGGGCCAGGCAGGCAUCAAAAGAAAUAGUCUUGCGCUCAACCAGAAAGUCUGUAACCAUUUUAAGGGUA,1.11
14,GUUAACGGUCAUAGGCCAUGGAAACUAGGAGCACCAUUUCGCUGCCAGUGAAGAAAUGAACAAAGUAAAUCUGGGCCAGGCAGGCAUCAGAAGAAAUAGUCUUGCGCUCAACCAGAAAGUCUGUAAUCAUUUUAAGGGUA,1.22
15,GUUAACGGUCAUAGGCCAUGGAAACUAGGAGCACCAUUUCGCUGCCAGUGAAGAAAUGAACAAAGUAAGUCUGGGCCAGGCAGGCAUCAAAAGAAAUAGUCUUGCGCUCAACCAGAAAGUCUGUAAUCAUUUUAAGGGUA,1.06
16,GUUAACGGUCAUAGGCCAUGGAAACUAGGAGCACCAUUUCGCUGCCAGUGAAGAAAUGAACAAAGGAAAUCUGGGCCAGGCAGGCAUCAAAAGAAAUAGUCUUGCGCUCAACCAGAAAGACUGUAAUCAUUUUAAGGGUA,1.73
17,GUUAACGGUCAUAGGCCAUGGAAACUAGGAGCACCAUUUCGCUGCCAGUGAAGAAAUGAACAAAGGAAAUCUGGGCCAGGCAGGCAUCAAAAGAAAUAGUCUUGCGCUCAACCAGAAAGGCUGUAAUCAUUUUAAGGGUA,2.47
18,GUUAACGGUCAUAGGCCAUGGAAACUAGGAGCACCAUUUCGCUGCCAGUGAAGAAAUGAACAAAGUAAAUCUGGGCCAGGCAGGCCUCAAAAGAAAUAGUCUUGCGCUCAACCAGAAAGUCUGUAAUCAUUUUAAGGGUA,1.36
19,GUUAACGGUCAUAGGCCAUGGAAACUAGGAGCACCAUUUCGCUGCCAGUGAAGAAAUGAACAAAGUAAAUCUGGGCCAGGCAGGCAUCAAAAGAGAUAGUCUUGCGCUCAACCAGAAAGUCUGUAAUCAUUUUAAGGGUA,1.87
20,GUUAACGGUCAUAGGCCAUGGAAACUAGGAGCACCAUUUCGCUGCCAGUGAAGAAAUGAACAAAGGAAAUCUGGGCCAGGCAGGCAUCAAAAGAAAUAGUCUUGCGCUCAACCAGAAAGUCUGAAAUCAUUUUAAGGGUA,1.19
21,GUUAACGGUCAUAGGCCAUGGAAACUAGGAGCACCAUUUCGCUGCCAGUGAAGAAAUGAACAAAGGAAAUCUGGGCCAGGCAGGCAUCAAAAGAAAUAGUCUUGCGCUCAACCAGAAAGUCUGCAAUCAUUUUAAGGGUA,0.76
